Data published in article doi:10.1101/2022.02.08.479556.

Target: SARS-CoV-2 nucleocapsid protein N:G215C mutant (SARS-CoV-2) (UniProt P0DTC9)
Assay: AUC

Q: Which Kd does the source give for “SARS-CoV-2 nucleocapsid protein N:G215C mutant (from UniProt P0DTC9 1-419) (natural protein)” here?
A: 3.3 µM
